Numbering of substitutions follows the chain as printed.
B1: 75110_02E08A (antibody, V domains shown)
VH: QVQLQESGPGLVKPSETLSLTCTVSGGSISTYYWTWIRQPAGKGLEWIGRVYTSGDTNYNPSLKSRVAMSLDTSKNQFSLKLSSVTAADTAVYYCARDSGALYSWNYGDAFDIWGQGTMVTVSS
VL: DIQMTQSPSAMSASVGDRVTITCRASQDISNYLAWFQQKPGKVPKRLIYAASSLQSGVPSRFSGSGSGTEFTLTISSLQPEDFATYYCLQHNSYPRTFGQGTKVEIK
notes: Tested as antibody purified from AlivaMab Mouse hybridoma supernatant (captured by anti-mouse IgG Fc)
B2: 75110_03B16A (antibody, V domains shown)
VH: EVQLVESGGGLVQPGGSLRLSCAASGFTFSSYWMSWVRQAPGKGLEWVANINEDGSEKNYVDSVKGRFTISRDNAKNSLCLQLNSLRAEDTAVYHCAREGGQWLALDYWGQGTLVTVSS
VL: DIQMTQSPSSVSASVGDRVNITCRASQGIRSWLAWYQQKPGKTPKLLICGASSLQSGVPSRFSGSGSGTDFTLTISSLQPEDFATYYCQQANSFPWTFGQGTTVEIK
notes: as for B1
B3: 75110_02K11A (antibody, V domains shown)
VH: QVQLQESGPGLVKPSQTLSLTCTVSGGSISSGFYYWTWIRQHPGKGLEWIGYISYSGNTYYNPSFKSRLTISVDTSKSQFSLKLSSVTAADTAVYYCARDRPSNFDAFDIWGQGTMVTVSS
VL: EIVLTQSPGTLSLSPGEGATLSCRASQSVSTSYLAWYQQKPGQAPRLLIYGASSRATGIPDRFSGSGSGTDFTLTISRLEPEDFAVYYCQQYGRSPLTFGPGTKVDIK
notes: as for B1
B4: 75110_02I16A (antibody, V domains shown)
VH: QVQLQQWGAGLLKPSETLSLTCDVYGGSFSGYYWTWIRQPPGKGLEWIGEINHSGTTNSNPSLKSRVTISVDTSKSQFSLRLSSVTAADTAVYFCTRELNWFDPWGQGTLVTVSS
VL: DIQMTQSPSSVSASVGDRVTITCRASQDIANWLAWYQQKPGKAPQLLIYAASSLLGGVPSRFSGSGSGADFTLTISSLHPEDFATYYCQQANSFPYTFGQGTKLEIK
notes: as for B1
B5: 75110_04B08A (antibody, V domains shown)
VH: QVQLVESGGGVVQPGRSLRLSCTASGFNFINYGIHWVRQAPGKGLEWVTIIWYDGSKKYYADSVKGRFAISRDNSKNTLYLQMNSLRAEDTAVYYCAREDDWNDGLAYWGQGTLVTVSS
VL: AIQMTQSPSSLSASVGDRVTITCRASQDIRNDLGWYQQKPGKAPNLLIYAASNLQSGVPSRFSGSGSGTDFTLTISSLQPEDFATYYCLQDSNYPRTFGQGTKVEIK
notes: as for B1
B6: 75110_02E22A (antibody, V domains shown)
VH: QVQLQESGPGLVKPSETLSLTCTVSGGSISSFYWSWIRQPAGKGLEWIGRIYTSGSTNYNPSLKSRVTMSVDTSKNQFSLKLSSVTAADTAVYYCARELEKRNYYGMDVWGQGTTVTVSS
VL: DIQMTQSPSSLSASVGDRVTITCQASHDISNYLNWYQQKPGKAPKLLIFDASTLETGVPSRFSGSGSGTYFTFTIRSLQPEDIATYYCQQYDSLPLTFGGGTKVEIK
notes: as for B1
B7: 75110_04D20A (antibody, V domains shown)
VH: B6 VH with G26N, S31D, F32Y, V67I, K81E, K101R, R102Y, N103Y, Y104F, M107V
VL: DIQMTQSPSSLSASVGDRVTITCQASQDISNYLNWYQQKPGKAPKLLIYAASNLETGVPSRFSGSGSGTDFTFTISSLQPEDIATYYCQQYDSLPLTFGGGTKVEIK
notes: as for B1
B8: 75110_03I08A (antibody, V domains shown)
VH: QVQLQESGPGLVKPSETLSLTCTVSGGSISSYYWSWIRQPPGKGLEWIGYIYYSGSTNYNPSLKSRVTISVDTSKNQFSLKLSSVTAADTAVYYCAREGEQWFYGLDVWGQGTTVTVSS
VL: EIVLTQSPGTLSLSPGERATLSCRASQSVSSTYLAWYQQKPGQAPRLLIYGSSSRATGIPDRFSGSGSGTDFTLTISRLEPEDFAVYYCQQYGNSFPITFGQGTRLEIK
notes: as for B1

Biological target: T1, Rhesus macaque CD4-HIS (Acro Biosystems, Cat. CD4-C52H7) (rhesus macaque, UniProt P16003 26-390)
T1 construct: Bought reagent; also called Rhesus CD4; rhesus CD4-HIS; not shown: His tag
Assay: BLI Octet, mAb on anti-mouse Fc sensor, rhesus CD4-HIS 25-100 nM, 1:1 global fit;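 note: purified antibodies captured at 10 µg/mL, rhesus CD4 analyte run as a three-concentration serial dilution, irrelevant antibody as reference control, one kinetic constant set per antibody from global fitting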
Procedure: A three-point, 1:1 serial dilution of human and rhesus CD4 proteins were prepared using kinetics buffer as diluent. […] 10 mM Glycine pH 1.7, and kinetics buffer were used to regenerate the AMC biosensors. […] An irrelevant antibody derived from the Alivamab mouse was included in the assay as an internal reference control.
After completion of the kinetic characterization assays, data was analyzed in Forte Bio analysis software v11. The Y-axis was aligned to the final 5 seconds of the baseline step, with inter-step alignment to the dissociation step. Savitzky-Golay Filtering was used to smooth the data. Kinetic curves were fit to both association and dissociation steps using a 1:1 stoichiometry model. A global fitting was calculated using the three-point analyte titration to derive a single set of kinetic constants for each antibody against human and rhesus CD4.

T1 sequence (P16003 26-390 limits assumed): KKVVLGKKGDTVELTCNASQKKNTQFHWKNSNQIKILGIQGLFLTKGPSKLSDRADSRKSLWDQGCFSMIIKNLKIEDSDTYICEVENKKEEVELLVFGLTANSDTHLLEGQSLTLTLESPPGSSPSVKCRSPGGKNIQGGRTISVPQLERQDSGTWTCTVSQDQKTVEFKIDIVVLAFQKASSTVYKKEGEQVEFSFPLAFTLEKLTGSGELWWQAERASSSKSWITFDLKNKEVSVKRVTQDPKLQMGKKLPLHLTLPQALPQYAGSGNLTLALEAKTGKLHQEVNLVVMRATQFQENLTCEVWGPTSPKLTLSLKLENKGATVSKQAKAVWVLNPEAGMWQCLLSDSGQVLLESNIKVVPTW

Binder	Kd [nM]	Response	koff [s⁻¹]	kon [M⁻¹ s⁻¹]
B1	12	0.04	0.00091	79000
B2	23	0.19	0.004	170000
B3	26	0.13	0.0015	59000
B4	37	0.14	0.0092	250000
B5	18	0.26	0.0048	270000
B6	51	0.15	0.0044	87000
B7	12	0.13	0.0017	140000
B8	6.1	0.04	0.00061	100000

— patent US20220112288A1 (published 2022)
